The results in this text go back to article doi:10.1101/299487 (bioRxiv, 2018).

Read-outs that look alike come from different tables or passages of the source.

Data set [1] deals with the molecule itself. Nature of the data set: cryo-EM structure.
Data set [2] concerns the molecule itself. The data set can be described thus: cryo-EM structure. The source holds these as a separate data set.

B1: Dam1C/DASH heterodecamer (recombinant) (complex, yeast (budding yeast))
chain 1: MSEDKAKLGTTRSATEYRLSIGSAPTSRRSSMGESSSLMKFADQEGLTSSVGEYNENTIQQLLLPKIRELSDSIITLDSNFTRLNFIHESLADLNESLGSLLYGIMSNSWCVEFSQAPHDIQDDLIAIKQLKSLEDEKNNLVMELSNMERGIKRKKDEQGENDLAKASQNKQFNQPLFPSSQVRKYRSYDNRDKRKPSKIGNNLQVENEEDYEDDTSSEASFVLNPTNIGMSKSSQGHVTKTTRLNNNTNSKLRRKSILHTIRNSIASGADLPIENDNVVNLGDLHPNNRISLGSGAARVVNGPVTKNRNSMFSGRAERKPTESRHSVAKKTEKKINTRPPFR
chain 2: MMASTSNDEEKLISTTDKYFIEQRNIVLQEINETMNSILNGLNGLNISLESSIAVGREFQSVSDLWKTLYDGLESLSDEAPIDEQPTLSQSKTK
chain 3: MDSIDEQIAIKRKELQSLQKITSLTDGLKIQLTELNEQIKEMGMNADSVAQLMNNWDSIINNISQASLGLLQYAEGDYEIGPWKDSKKKESEQSNETGLEAQENDKNDEDNDEDEDLVPLPETMVRIRVDGNE
chain 4: MEHNLSPLQQEVLDKYKQLSLDLKALDETIKELNYSQHRQQHSQQETVSPDEILQEMRDIEVKIGLVGTLLKGSVYSLILQRKQEQESLGSNSK
chain 5: MENPHEQVQANILSRIIGNVKRLNESVAILNQELVTINNRNKNLEIMGAICDNYHSSVQFNLEATNNKKPPL
chain 6: MSEQSQLDDSTIDKLIPQIFNEMRSNLNNTTNKFPKSTGGGASDNISANSNSIRSFNSITTQSLLKESESLDKITAMIKNVTAALKNNLPVYVNQVHEVCKSTNSILDSWINIHSQAGYIHKLMSDQTYLKLINDRLHNENVNTNDEDGSTLHNVIALKKKEILDLRQKLENRKGEKDAAPAKPPNQGLNPRYGVQSGRRPVPSAGISNNGRVRKTHVPASKRPSGIPRVTNRWTKPTASSSRKMFR
chain 7: MDSASKEETLEKLDQEITVNLQKIDSNLSFCFHKITQDIIPHVATYSEICERIMDSTEWLGTMFQETGLVNLQANAAAPVGNAPVKSLVSNNVGIFPTSAEEASRQSQTDNGPNEADSAVHVNRDVHSMFNNDSIDDFHTANITSTGQILKLPDSSDEDTGSEAVPSREQTDLTGEGHGGADDEQDESTIQRQSRKRKISLLLQQQYGSSSSMVPSPIVPNKMRKQLAHEEHINNDGDNDDENSNNIESSPLKQGHHHPKGQADDNNEGPDEEESTKEVPKPGTIIHFSTNR
chain 8: MTDALEQSVLALEGTVSVLKDSVESLKCANEPSTNLASTMLQTKRVFRLVPEYDVERSKLDLIEEVEPLVRTLGDKLRKSMGRMQRELDTLQQTYELNDLRLKKNISMDDDDALNSPDMGQEYEGRDADDVVMMASSTNEELEELKKLKEKKKQLENKLEILKQK
chain 9: MGESLDRCIDDINRAVDSMSTLYFKPPGIFHNAILQGASNKASIRKDITRLIKDCNHDEAYLLFKVNPEKQSVSRRDGKEGVFDYVIKRDTDMKRNRRLGRPGEKPIIHVPKEVYLNKDRLDLNNKRRRTATTSGGGLNGFIFDTDLIGSSVISNSSSGTFKALSAVFKDDPQIQRLLYALENGSVLMEEESNNQRRKTIFVEDFPTDLILKVMAEVTDLWPLTEFKQDYDQLYHNYEQLSSKLRFIKKEVLLQDDRLKTMSQYHPSSSHDVAKIIRKEKDEIRRLEMEIANLQE
chain 10: MNANKQRQYNQLAHELRELQTNLQETTKQLDIMSKQCNENLVGQLGKVHGSWLIGSYIYYMEQMLGKTQ
With B1, the “stoichiometry N” value in the data set “cryo-EM structure [1]” came to 17.

B2: Dam1C/DASH outer-kinetochore complex in yeast cells (complex)
chain 1: B1 chain 1
chain 2: B1 chain 2
chain 3: B1 chain 3
chain 4: B1 chain 4
chain 5: B1 chain 5
chain 6: B1 chain 6
chain 7: B1 chain 7
chain 8: B1 chain 8
chain 9: B1 chain 9
chain 10: B1 chain 10
On to B2, for which the “stoichiometry N” value in the data set “cryo-EM structure [2]” amounted to 17.
